First the molecules themselves.
B1: glmS ribozyme (parent)
chain: AUAAAAGCGCCAGAACUACAGAAAUGUAGUUGACGAGGAGGAGGUUUAUCGAAUUUUCGGCGGAUGCCUCCAAA

Conditions in all cases: with glucosamine-6-phosphate
Data set [1] covers variants of B1. The data set is described as follows: kcat; higher = faster cleavage; RNA array. In short, it runs like this:
(§1)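 Over ~14 h at 37 °C, tiles were imaged as glucosamine-6-phosphate (40 μM to 10 mM) in HEPES/KCl/Mg(OAc)2 buffer flowed across sequenced MiSeq chips. The chips carried barcoded ribozyme variants transcribed in situ by E. coli RNA polymerase and tracked with a hybridised Cy3 probe. After normalisation to baseline and to non-cleaving reference variants, one- or two-exponential decay fits of per-tile medians gave kobs. kcat and KM followed from weighted Michaelis–Menten fits across concentrations.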

Variants of B1 are the subject of data set [2]. The data set is described as follows: KM; higher = weaker cofactor use; RNA array. Put shortly:
as §1

In data set [3] the parent is B1. The data set is described as follows: self-cleavage kobs at 40 uM GlcN6P; higher = faster cleavage; RNA array. Put shortly:
as §1

In data set [4] the parent is B1. The data set is described as follows: self-cleavage kobs at 160 uM GlcN6P; higher = faster cleavage; RNA array. Put shortly: as §1
In data set [5] the parent is B1. The data set is described as follows: self-cleavage kobs at 640 uM GlcN6P; higher = faster cleavage; RNA array. In short, it runs like this:
as §1

The variants in data set [6] derive from B1. The data set is described as follows: self-cleavage kobs at 2500 uM GlcN6P; higher = faster cleavage; RNA array. In short, it runs like this: as §1
The variants in data set [7] derive from B1. In words: self-cleavage kobs at 10000 uM GlcN6P; higher = faster cleavage; RNA array. Put shortly:
as §1

± gives the standard error. For some of these results: This sample holds only a part of the variants without activity.

As a reminder, the kcat is the maximal rate divided by the concentration of active sites. As a reminder, the KM is the substrate concentration at which the rate is half of its maximum.

Take U31A A53G: the catalytic constant (kcat) in data set [1] came to 0.0153 ± 0.0017 s⁻¹. Also, the KM in data set [2] stood at 1860 ± 270 µM. For the same variant, the “self-cleavage kobs at 40 uM GlcN6P” value in data set [3] was 0.00035 ± 4.3e-05 s⁻¹. The “self-cleavage kobs at 160 uM GlcN6P” value in data set [4] came to 0.00107 ± 0.00018 s⁻¹. In addition, the “self-cleavage kobs at 640 uM GlcN6P” value in data set [5] worked out at 0.0038 ± 0.00071 s⁻¹. Moreover, the “self-cleavage kobs at 2500 uM GlcN6P” value in data set [6] stood at 0.0096 ± 0.0019 s⁻¹. Also, in data set [7], the “self-cleavage kobs at 10000 uM GlcN6P” value came out at 0.0127 ± 0.002 s⁻¹.

As for A36G U69A, the kcat in data set [1] is 1.02e-05 ± 2.2e-06 s⁻¹.

Consider A12U U30G, for which the kcat in data set [1] turned out to be 0.0227 ± 0.0046 s⁻¹. Moreover, in data set [2], the KM was determined as 983 ± 280 µM. In addition, the “self-cleavage kobs at 40 uM GlcN6P” value in data set [3] was 0.000931 ± 0.00012 s⁻¹. Besides, in data set [5], the “self-cleavage kobs at 640 uM GlcN6P” value worked out at 0.00794 ± 0.0013 s⁻¹. For the same variant, the “self-cleavage kobs at 2500 uM GlcN6P” value in data set [6] was found to be 0.0279 ± 0.0091 s⁻¹. Moreover, in data set [7], the “self-cleavage kobs at 10000 uM GlcN6P” value amounted to 0.0211 ± 0.0039 s⁻¹.

Take A15U C67U: the kcat in data set [1] stood at 0.00194 ± 0.00074 s⁻¹. In data set [3], the “self-cleavage kobs at 40 uM GlcN6P” value came to 5.32e-05 ± 6.3e-06 s⁻¹. The “self-cleavage kobs at 160 uM GlcN6P” value in data set [4] was determined as 0.000161 ± 1.7e-05 s⁻¹. In addition, the “self-cleavage kobs at 640 uM GlcN6P” value in data set [5] turned out to be 0.000409 ± 3.4e-05 s⁻¹. Further, in data set [6], the “self-cleavage kobs at 2500 uM GlcN6P” value came out at 0.00189 ± 0.00029 s⁻¹. Further, the “self-cleavage kobs at 10000 uM GlcN6P” value in data set [7] is 0.00167 ± 0.00023 s⁻¹.

U56A C68G C71U: the kcat in data set [1] was 4.87e-05 ± 2e-05 s⁻¹. Moreover, the “self-cleavage kobs at 640 uM GlcN6P” value in data set [5] turned out to be 7.83e-05 ± 1.6e-05 s⁻¹. The “self-cleavage kobs at 2500 uM GlcN6P” value in data set [6] worked out at 4e-05 ± 1.6e-05 s⁻¹.

With U49C C67U, in data set [1], the kcat was 1e-05 ± 1e-06 s⁻¹. Also, in data set [2], the Michaelis constant (KM) stood at 267 ± 130 µM.

Take C16U G32C A52G: the kcat in data set [1] was 4.34e-05 ± 1.5e-06 s⁻¹. Also, the KM in data set [2] amounted to 3600 ± 420 µM. In addition, the “self-cleavage kobs at 10000 uM GlcN6P” value in data set [7] was 3.19e-05 ± 1.3e-05 s⁻¹.

With G41U U47C, the kcat in data set [1] amounted to 0.000156 ± 5.1e-05 s⁻¹. The “self-cleavage kobs at 640 uM GlcN6P” value in data set [5] was found to be 4.55e-05 ± 1.3e-05 s⁻¹. Moreover, the “self-cleavage kobs at 2500 uM GlcN6P” value in data set [6] is 0.000205 ± 4.6e-05 s⁻¹. The “self-cleavage kobs at 10000 uM GlcN6P” value in data set [7] is 0.000128 ± 2.3e-05 s⁻¹.

With U54C G59U, the kcat in data set [1] was 4.57e-05 ± 2.2e-05 s⁻¹. Further, the “self-cleavage kobs at 10000 uM GlcN6P” value in data set [7] was 2.45e-05 ± 1.2e-05 s⁻¹.

Take G29A C68G: the catalytic constant (kcat) in data set [1] stood at 3.6e-05 ± 1e-05 s⁻¹. Moreover, the “self-cleavage kobs at 160 uM GlcN6P” value in data set [4] was 2.59e-05 ± 1.2e-05 s⁻¹. Besides, the “self-cleavage kobs at 640 uM GlcN6P” value in data set [5] is 4.89e-05 ± 9.9e-06 s⁻¹. Moreover, the “self-cleavage kobs at 2500 uM GlcN6P” value in data set [6] was 3.97e-05 ± 1.1e-05 s⁻¹.

In the case of A14U U31G A64G, the kcat in data set [1] is 0.00476 ± 0.0018 s⁻¹. Moreover, the “self-cleavage kobs at 40 uM GlcN6P” value in data set [3] was 6.69e-05 ± 1.5e-05 s⁻¹. The “self-cleavage kobs at 640 uM GlcN6P” value in data set [5] came out at 0.000996 ± 0.00037 s⁻¹. Besides, the “self-cleavage kobs at 2500 uM GlcN6P” value in data set [6] worked out at 0.00162 ± 0.00048 s⁻¹. The “self-cleavage kobs at 10000 uM GlcN6P” value in data set [7] amounted to 0.00468 ± 0.0012 s⁻¹.

Take G29A A52G: in data set [1], the kcat came to 0.000368 ± 9e-05 s⁻¹. For the same variant, the KM in data set [2] worked out at 3290 ± 1300 µM. Further, the “self-cleavage kobs at 640 uM GlcN6P” value in data set [5] was 5.31e-05 ± 8.1e-06 s⁻¹. Moreover, in data set [6], the “self-cleavage kobs at 2500 uM GlcN6P” value came out at 0.000207 ± 2.8e-05 s⁻¹. The “self-cleavage kobs at 10000 uM GlcN6P” value in data set [7] came to 0.000255 ± 3.8e-05 s⁻¹.

Regarding A12G G40C, the kcat in data set [1] worked out at 0.000334 ± 3.5e-05 s⁻¹. Further, the KM in data set [2] was 3830 ± 720 µM. Moreover, in data set [5], the “self-cleavage kobs at 640 uM GlcN6P” value stood at 5.37e-05 ± 1e-05 s⁻¹. The “self-cleavage kobs at 2500 uM GlcN6P” value in data set [6] is 0.000124 ± 1.6e-05 s⁻¹. Further, the “self-cleavage kobs at 10000 uM GlcN6P” value in data set [7] is 0.000248 ± 3.1e-05 s⁻¹.

G37A C67U: the kcat in data set [1] came to 0.000574 ± 0.0001 s⁻¹. The KM in data set [2] was found to be 2310 ± 720 µM. The “self-cleavage kobs at 160 uM GlcN6P” value in data set [4] worked out at 4.58e-05 ± 1.1e-05 s⁻¹. The “self-cleavage kobs at 640 uM GlcN6P” value in data set [5] came to 0.000109 ± 1.5e-05 s⁻¹. The “self-cleavage kobs at 2500 uM GlcN6P” value in data set [6] worked out at 0.00036 ± 4.6e-05 s⁻¹. For the same variant, the “self-cleavage kobs at 10000 uM GlcN6P” value in data set [7] was 0.000449 ± 4.9e-05 s⁻¹.

Take A15U U47C: the kcat in data set [1] was 0.00038 ± 5e-05 s⁻¹. In addition, the KM in data set [2] came out at 862 ± 310 µM. The “self-cleavage kobs at 160 uM GlcN6P” value in data set [4] amounted to 5.24e-05 ± 1.3e-05 s⁻¹. The “self-cleavage kobs at 640 uM GlcN6P” value in data set [5] is 0.00024 ± 7.3e-05 s⁻¹. Moreover, in data set [6], the “self-cleavage kobs at 2500 uM GlcN6P” value came out at 0.00036 ± 5e-05 s⁻¹. Moreover, in data set [7], the “self-cleavage kobs at 10000 uM GlcN6P” value is 0.000325 ± 3.4e-05 s⁻¹.

With G35A G37A G44U U49G C67G, the kcat in data set [1] is less than 1e-05 s⁻¹. In addition, the “self-cleavage kobs at 2500 uM GlcN6P” value in data set [6] was less than 1e-05 s⁻¹.

A15U U46G: in data set [1], the kcat worked out at 0.000901 ± 0.00012 s⁻¹. Also, the KM in data set [2] amounted to 1650 ± 380 µM. Further, the “self-cleavage kobs at 160 uM GlcN6P” value in data set [4] was determined as 6.81e-05 ± 1e-05 s⁻¹. Moreover, the “self-cleavage kobs at 640 uM GlcN6P” value in data set [5] came out at 0.000292 ± 3.4e-05 s⁻¹. The “self-cleavage kobs at 2500 uM GlcN6P” value in data set [6] amounted to 0.000642 ± 8.4e-05 s⁻¹. For the same variant, the “self-cleavage kobs at 10000 uM GlcN6P” value in data set [7] came out at 0.000725 ± 7.1e-05 s⁻¹.
